Consider 19 sequences from a protein production outcome set (Wang et al. 2014).

The nature of this series: label from the status in PepcDB records.
As to “MHKDELLELHEQMVTIMEYFRDDMDSVDPDLFDAYQELDVRPSDVHKSKSEHKHAVFVLGNSLATAMSEDEFSDAGRVSKRMKELAEDAERKLLEHHHHHH”, the protein production entry is “not failed”.
The same measure for “MTQRAGIHPSARRPSAFDPPIGCARPAMTDTLSLRPIVGRRRLWELDPHFHCSIVGTCLTMSDLRKLATKTRLSVPADAPDYRLHGVFVRAAGAAGPAEKGIAKLMDKDLERRHTRALAQFRKAADNDALEALWDGAREAGDIPGPYWALMCHPLASRTLLERAFGEVHMLSHLMGAANRADVRRLAEMERETEAVEDRLAEAEARRLREIEIKQGEIGQLRAAIEAERARTRALVRRLEEAGEGGCRDLRIQTLEATMEGLRERLNREAWRADRLQGKLAEAERLLTEVRADRDDLRRRLAEQAEDLRTLEDLALDDDGEAGDRPPLDLGGRTILYVGGRPRTVPSLRKLVEDSNGRFAHHDAGREDGRAHLGEVLSGADIVICPVDCISHDACLKAKRACLKRGTPFVPLSSAGLGAFARCLRETAPLFAPANDGAALAAELEHHHHHH”: “failed”; for “MAERSFSQLPISSSHIGRRTGNTRRGIFPVSEYWIHAIPVIVFLCFFTLWIFSHSVSVMNDGEIMSIHRLEKSMAVRNESHVSLAILASSAVSPASSALVAVVSTNQNLTTFHNATQSQQNATQSVNKAKQPHAV”: “not failed”; for “MAHNYLLEIGLEEIPAHVVTPSIKQLVQKVTAFLKENRLTYDSIDHFSTPRRLAIRINGLGDQQPDIEEDAKGPARKIAQDADGNWTKAAIGFTRGQGLTVDDITFKTIKGTDYVYVHKLIKGKMTKEILTGLKEVVESINFPTMMKWANFDFKYVRPIRWLVSILDEEVLPFSILDVTAGRRTEGHRFLGEAVELANAEEYEAKLHDQFVIVDADERKQLISNQIKAIAESNRWNVTPNPGLLEEVNNLVEWPTAFNGGFDEKYLAIPEEVLITSMRDHQRFFFVRDQAGKLLPNFISVRNGNEEFIENVVRGNEKVLTARLEDAAFFYEEDQKHDINYYVDRLKKVSFHDKIGSMYEKLQRVNSIAKVIGNTLNLNQTELDDIDRATMIYKFDLVTGMVGEFSELQGVMGEKYAQLNGENQAVAQAIREHYMPNSAEGDLPESVTGAVVALADKFDNIFSFFSAGMIPSGSNDPYALRRHAYGIVRILNSRDWQLDLNQFKSQVKTELAENGTAFGVDVDQNFDQVLNFFNDRIKQLLDHQKISHDIVETVLTGNNHDVTEIIEAAQVLADAKASSTFKDDIEALTRVQRIATKNEESGELNVDPQLFNNASEGELFDQIIKIEAANNLTMSQLFAKLCELTPAISKYFDATMVMDKDENIKRNRLNMMSRLANLILKIGDLTNVLVK”: “failed”.
The same measure for “GLTNFTRDAEVLYQCAWIHDVMGLETEAMPYYEQAIANGLEGESLCGAYIGLGSTYRCIGEYDKAITVLETGLQQFPGNDVMKVFLSLAKFNVNDHESAMKLLLETVVK”: “failed”; for “MAVSKMEKMTIIAAAEKEAAILQAIQGLQIVEVKRIFHSPEEEQALKSQYSFLQAEQSTEQLRKYETMLQQLQELLLFLTRSSGKGLKIKRKVYTLEELEQTFDEETLQSYLTELKNIQESLKQIQTDRQGLEAEEELLGRWQYLDVLPHKQQLKSSYVVHGSINLANKASFLSALSQWPTVYFEEIYQSMHHSYFTLVYLKEHQQSVTELLNQYSFEPLQYRYDVPPKEAYQQVKERYEILQKEEKALKQQLASYHDFYETFCLAEEVLLAVIQREQARQHLLNASSFFILQTWIPVEEKAEILTAIEEKVPKDEIALTFENPTKAEIETDIPVKLANNKLVQPFEMLTEMYSLPKYEEVDPTPAMMPFYLVFFGMMVADIGYGLLMLLLSIIALKAFVLPRGMKRFADFFLILSFPTIIWGFIYGSFFGAALPPIMFGIKSPFPILSTTEDVNTILILSVIFGFIQLVVGLMINGIQLSKQKRYLDSINESYAWLGILFGLALLVVGKLVVKNEGLFTAGAILASLSAIAIIVIPMIQSKAKLKGLAKGLYGLYGVTGYVGDLVSYTRLMALGIAGGSIASAFNMLVEFMPPVARFSVGILLLIVLHALNIFLSLLGAYVHGARLQYVEFFGKFYTGGGRAFNPLKTKEKYVNVEKK”: “failed”.
Regarding “MDITSLINANVICLDLTSTSKEDILQEMVQILDDAGKLSNKTQFLSDVWAREEIGNTGFEDGIAIPHAKSSAVLTPSVAIGISRTGIDYGAEDGEPSDIFFMLASTDGDDNQHIEALAQISSRLIEDGFTNKLKKADSKEEILDLFTDIIQPNTESTDIENAPSQIEKSELTRKLGRTKEHLLFGTSHMIPFIVAGGVLLSLSVMISGQGAVPTEGILADIAQMGIAGLTLFTAVLGGYIAYSIADKPGLAPGMIGSWIAVQQYNTGFLGAIIIGFFAGFVVRSLKKIKLPESMASLGSIFIYPLVGTFLTCAAVMWVIGAPISNAMAALNEWLASMAGSGKIALGAILGAMAAFDMGGPINKVATLFAQTQVNTQPWLMGGVGIAICTPPLGMALATFLSPKKFKRDEREAGKAAGIMGMIGITEGAIPFAAADPARVIPAIVAGGIVGNITGFVFNVLNHAPWGGWIVLPVVDGKIGYIIGTLLGAFTTAAIVILLKKNAVEDDEHTQQKFTFESVKNEGEADVLAVTACPSGVAHTFLAAKSLEKAAHKLGIKIKVETQGADGINNRITPLDIKNAKLVIFAHDVAIKEPLRFKGMRTLDIATKDAMYSAEQLLNDNLTKHHKRFSKA”, the protein production entry is on record as “failed”.
Then “MQSYSDSKPGGATFALFETEHLKANIRRALVEAVLSPWQRTFLSDVLSKLERYGNRARLSHKQLLKLNEILGGNGTPRQDRVTTSRTTRHTRRPRFRSPSFLSRQIRWSRRRLARDAVVVALIVMVGLLYSVFETGPVQSFLGTVGKSSHVMGPVDQAFTVTDGDTVHVAGERAGTRLVGFNTPEKFSPQCEYERKLGERASSRLRELVKSPNLQLTKVPCACPAGSEGTDACNHGRSCGVLKVDGRDVGQILIGEGLAVPFICEGNRCPRTPRPWCGQQS”, with “failed”; and “PASGVRPAEAADLAAVAAYDSACSPADRPRFLEHWLAGPGHRTFVRLVDGRLTGYGVVRPALDSLRVGPLFADSAEDARALFTALTADAGEIAMDIPETNTAAVALAREAGLTPSFETARMYTGPVRPFAADRVYGITSLELG”, with “failed”; and “MKKASEYYYYLGDICWRKEKTDSAKYYFMEGIKTDETYAMNYVGIGIITMKSNATEGQRSFDKALQMTSQKNSQVLNAIGEYYILEADKAELPKGIALLKKSTEIDAKNAMSWILLGDAYGKQAEGSKQAESYGKAANLFHSVPLLKMKYGKMYAAARNKDLSIKYYNEGLAADPTYGPIYRELGDLYNRFRQYDLAIQNYKKYLTYIDSNDDVEFRYADFLFKNNNYAEAIEVFNKLEAKKYNSPYIYNRRAVCYYELEHHHHHH”, with “failed”.
Consider “PGYTLTRELPLTEYRALYRAAEDTWAARLDWSPEQYDAHFAREDVRLLALRDSEGRPVAFAELELCAPDSRAELTHLAVHPAQRGQGLGRALLALAAAEAAQSPEIRTLRARAHDHMSAARQLYARAGLSHCRAVVTSLREG”, for which the protein production result was “failed”.
Then “MSFYIQLASLSIIILYVLLLFRNVDPLVATAVCVGLGFLWNISTPIDIGNAMADALGSFMALVGFIIMLGRGLGEVLTHTQVSHTLVHQIVYGVGVNTQRRAKIGIVLSSFIIVGLLGTLAGGLAILAPSLRPIAGSVGLSRPSLAVLMQASAEEALILGPFAPPVVTLLGVTGLSYGTVFLYASLPIAVVTLITTWFMASRLQKLYINEPCEDENSTEPFTPNRQQKRVTLIFLISFLFCVVYGLFTQAKTSYVIFVMLFLALITGLSCRLGLKQIFNLLFEGMQKSLHLFFLFILFDPFMALIHQAGGFNALTELLTPLINLGGKPVLSILIGFTGAFGMPGAAEATIKMLHQLFSPSVLQMQLPLITFALCMLFATRVTNYAYPGANMFAAMGFAGSENVKAMIQNGLVVTGVQVAFLIVYSLFIP”, with “failed”.
The same measure for “MSAESASQIPKGQVDLLDFIDWSGVECLNQSSSHSLPNALKQGYREDEGLNLESDADEQLLIYIPFNQVIKLHSFAIKGPEEEGPKTVKFFSNKEHMCFSNVNDFPPSDTAELTEENLKGKPVVLKYVKFQNVRSLTIFIEANQSGSEVTKVQKIALYGST”: “not failed”; for “MYFDSHLHSEGLGFSELVKLKENGIKEVCSLAFFPVKPKYPQTMIDVFRKLTEFEPLRCEAAGVKMHPAVGIHPRCIPPDYEFVLGYLEEGEWVAFGEIGLELVTDEEIEVLKSQLELAKRMDVPCIIHTPRGNKLKATRKTLEILESLDFPADLAVIDHVNFETLDMVLETEYWIGLTVQPGKLSAEDAARIVAEHGPERFMLNSDAGYRDVEITTVAEAAVKIEEAVGREEMEKVARENARKFLRVLELEHHHHHH”: “failed”.
The same measure for “MAARDPEATKARIFEAAVAEFARHGIAGARIDRIAAEARANKQLIYAYYGNKGELFASVLEKKMLDLAISVPVDPDDIEGWIDRLLDYHAAHPELLRLLFWEGMEYGTAELPHEAERQEHYARKVAAVRDGQERGVITDAIPAPDLLFLLVAMANWAVVVPQMKRILVGGGDAGTDGLRDSIKKAARRIVDR”: “not failed”.
On to “STERRRDELSEEINNLREKVMKQSEENNNLQSQVQKLTEENTTLREQVEPTPEDEDDDIELRGAAAAAAPPPPIEEECPEDLPEKFDGNPDMLAPFMAQCQIFMEKSTRDFSVDRVRVCFVTSMMTGRAARWASAKLERSHYLMHNYPAFMMEMKHVFEDPQRREVAKRKIRRLRQGMGSVIDYSNAFQMIAQDLDWNEPALIDQYHEGLSDHIQEELSHLEVAKSLSALIGQCIHIERRLARAAAARKPRSPPRALVLPHIASHHQVDPTEPVGGARMRLTQEEKERRRKLNLCLYCGTGGHYADNCPAKASKSSPAGNSPAPL”, for which the protein production entry is reported as “not failed”.
Then “MHRVGSAGSNGGSVRTRKEKKLTYVLNDANDTKHCAGINCLDVLKSSVSNDQSYLFTGSRDGTLKRWAFDEDATFCSATFESHVDWVNDAALAGESTLVSCSSDTTVKTWDGLSDGVCTRTLRQHSDYVTCLAVAAKNNNVVASGGLGGEVFIWDIEAALSPVTKPNDANEDSSSNGANGPVTSLRTVGSSNNISVQSSPSHGYTPTIAKGHKESVYALAMNDTGTMLVSGGTEKVLRVWDPRTGSKSMKLRGHTDNVRVLLLDSTGRFCLSGSSDSMIRLWDLGQQRCLHTYAVHTDSVWALACNPSFSHVYSGGRDQCLYLTDLATRESVLLCTKEHPIQQLALQDNSIWVATTDSSVERWPAEVQSPKTVFQRGGSFLAGNLSFNRARVSLEGLNPAPAYKEPSITVPGTHPIVQHEILNNKRQILTKDAAGSVKLWDITRGVVVEDYGKISFEEKKEELFEMVSIPSWFTVDTRLGCLSVHLETPQCFSAEMYSADLKVSGRPEDDKINLARETLKGLLGHWLAKKKHKPKPQVLASGDTLSVKDTKKNLSASKTEESSAASDPVYPPFEFSSVSPPSIITEGSQGGPWRKKITEFTGTEDEKDFPLWCLDAVLNNRLPPRENTKLSFFLHPCEGSSVQVVTLGKLSAPRILRVHKVTNYVVEKMVLDNPLDSLAIDAASVSGGQPQPLFSGNGLLQSGLKPWQKLRPSIEILCNSQVLSPDMSLATVRAYVWKKPEDLILNYRVAIAR”, with “failed”; and “HPKLVSSTPAEGSEGAAPAKIELHFSENLVTQFSGAKLVMTAMPGMEHSPMAVKAAVSGGGDPKTMVITPASPLTAGTYKVDWRAVSSDTHPITGSVTFK”, with “not failed”.
As for “MSEEKNTAIDLKNLKAGGFIKERGKDLFTVRLRVPGGRLPVGRLKKIAEVAEKYGQGMVHLSVRQSVELININFRDFDAVVAELGEGTQKVASCGARVRVPTACGGCEYNPNGLVDTQKSALEVDEKLFGIPTGHHKFKVGFAGCPFDCPKSATNDVGFQGAVWPVLSADHCIGCGLCAKSCTEDAIAMGDNGKPLFIPANCLYCGDCLKVCPTEAWRAGKKGYTVRIGGKWGRRPLVGTLFAEFLPEDQVVDFIAAVLGWYQEKAEGQGRIRLGDVIRAQGPEALLARLRERFPAFVVNATIAPQAIATQVGKEKQAHDNRLEHHHHHH”, the protein production result was “not failed”.
